{"source": "paper PMC12448856", "about": "“Decoding the base flipping mechanism of the SET- and RING-associated (SRA) domain of the epigenetic UHRF1 protein”", "binders": {"B1": {"name": "HM duplex, unlabelled (dsDNA)", "DNA 1": "GGGCCCGCAGGG", "DNA 2": "CCCTGCGGGCCC", "modifications": "5mC at position 6 of strand 1"}, "B2": {"name": "NM duplex, unlabelled (dsDNA)", "DNA 1": "GGGCCCGCAGGG", "DNA 2": "CCCTGCGGGCCC"}}, "key": {"UHRF1 SRA domain [1]": {"biological_target": "T1, UHRF1 SRA domain (human, UniProt Q96T88 408-643)", "T1 sequence": "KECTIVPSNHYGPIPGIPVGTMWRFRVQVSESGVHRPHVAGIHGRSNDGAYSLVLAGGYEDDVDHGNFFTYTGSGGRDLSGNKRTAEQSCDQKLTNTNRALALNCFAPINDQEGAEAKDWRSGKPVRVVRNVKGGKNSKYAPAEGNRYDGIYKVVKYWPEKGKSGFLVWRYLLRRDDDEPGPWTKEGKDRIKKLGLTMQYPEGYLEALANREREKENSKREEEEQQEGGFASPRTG", "assay": "intrinsic Trp fluorescence titration; 1 uM SRA; 20 mM PBS pH 7.5, 50 mM NaCl, 2.5 mM TCEP, 0.05% PEG 20000, 20 C; duplex 1 uM in anisotropy", "settings": "protein: recombinant; 12 bp duplex"}, "UHRF1 SRA domain [2]": {"biological_target": "T1, UHRF1 SRA domain", "assay": "intrinsic Trp fluorescence titration; 1 uM SRA; 20 mM PBS pH 7.5, 50 mM NaCl, 2.5 mM TCEP, 0.05% PEG 20000, 20 C; duplex 1 uM in anisotropy", "settings": "protein: recombinant; 12 bp duplex", "remark": "listed apart in the source"}}}
{"binder": "B1", "values": [{"measurement": "Ka", "setting": "UHRF1 SRA domain [1]", "value": "8.1 ± 0.2 10^6 M-1"}]}
{"binder": "B2", "values": [{"measurement": "Ka", "setting": "UHRF1 SRA domain [2]", "value": "1.43 ± 0.07 10^6 M-1"}]}
